The nanobody polyreactivity screen of Harvey et al. (2022)

experiment: yeast display, Sf9 membrane polyspecificity reagent, FACS + sequencing; frameworks hold sequencing errors
Summary of the method: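 Nanobodies from a synthetic yeast display library (Saccharomyces cerevisiae BJ5465), induced 36–48 hours with galactose, were stained 1 hour at 4 °C with 10% biotinylated, detergent-solubilized Sf9 membrane reagent, enriched on streptavidin microbeads, then FACS-sorted. Anti-HA (expression) and streptavidin (reagent binding) fluorescence set low and high (top ~1%) gates. Polyreactivity labels come from the gate of origin. Genes were colony-PCR amplified, MiSeq 2 × 250 sequenced and filtered by CDR length.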

| Sequence | polyreactivity (PSR sort gate) |
| --- | --- |
| QVQLVESGGGLVQAGGSIRLSCAASGFIFGGYAMGWYRQAPGKERELVAAITRSGGSTYYADSVKGRFTISRDNAKTTVYFQMNSLKPEDTAVYYCAAVPYRKHSYPFRLNYWGQGTQVTVSS | high polyreactivity |
| QVQLVESGGGLVQAGGSIRLSCAASGFIFNHYAMGWYRQAPVKEREFVAAISWSGTRTYYADSVKGRFTISRDNAKNTVYLQMNSLKPEDTAVYYCAADVWGPYDYWGQGTQVTVSS | low polyreactivity |
| QVQLVESGGGLVQAGGSIRLSCAASGFTFAKYSMGWYRQAPVKERELVATITRGGNTYYADSVKGRFTISRDNAKNTVYLQMNSLKPEDTAVYYCAASWYRFSQYKYYYWGQGTKVTVSS | high polyreactivity |
| QVQLVESGGGLVQAGGSIRLSCAASGFTFYYNTMGCYRQAPGKERELVAAISYSAGSTFYADSVKGRFTISRDNAKNTVYLQMNSLKTEDTAVYYCAAGRPRRHKGYHFGYWGQGTQVTVSS | low polyreactivity |
| QVQLVESGGGLVQAGGSIRLSCAASGITFYRNARGWYRQAPGKEMELVAAITWNGGRTYYADSVKGRFTISRDNAKNTVYLQMNSLKPEDTAVYYCAAAYPTYRHYYWGQGTQVTVSS | low polyreactivity |
| QVQLVESGGGLVQAGGSIRLSCAASGITFYVYTLGWYRQAAGKERELVAAINGSGGSTNYADSVKGRFTITRDNEKNTVYLQMNSLKREDTAVYYCNAPVVYFWPLNFDYWGQGTQVTVSS | low polyreactivity |
| QVQLVESGGGLVQAGGSIRLSCAASGNTFRYYAMGWYRQAPGKERELVAGISRRGGSTYYADSVKGRFTISRDNAKNTVYLQMNSLKPEDTAVYYCNAVGGNGAVVAYGYWGQGTQVTVSS | high polyreactivity |
| QVQLVESGGGLVQAGGSIRLSCAASGRIFHPYAMGWYRQAPGKERELVATISWSGGSTTYADSVKGRFTISRDNAKNTVYLQMNSLKPEDTAVYYCNADYWWSYVRFDYWGQGTQVTVSS | low polyreactivity |
| QVQLVESGGGLVQAGGSIRLSCAASGRIFWGNGMGWYRQAPGKEREFVAAISKSGGSTYYPDSVKGRFTISRDNAKNTVYLQMNSLKPEDTAVYYCAARAPYSYSGYGYWGQGTQVTVSS | high polyreactivity |
| QVQLVESGGGLVQAGGSIRLSCAASGRIFYTYAMGWYRPAPGKERELVAAISSRTGSTYYADSVKGRFTISRDNAKNTVYLQMNSLKPEDTAVYYCNAYRLRYGYDYWGQGTQVTVSS | high polyreactivity |
| QVQLVESGGGLVQAGGSIRLSCAASGRTFSAYAMGWYRQEPGKVRELVARITSVDSTNYADSVKGRFTISRDNAKNTVYLQMNSLKPEDTAVYYSNATFGYPLVDYDDYWGQGTQVTVSS | low polyreactivity |
| QVQLVESGGGLVQAGGSIRLSCAASGRTFYLYAMGWYRQAPGKERELVAVISRRGGRTYYADSVKGRFTISRDNSKNTVYLQMNSLKPEDTAVYYCAVYSFGMGYWGQGTQVTVSS | high polyreactivity |
| QVQLVESGGGLVQAGGSIRLSCAASGSTFSHNAMGWYRQAPGKERELVAAIRWNGGSTYYADSVKGRFTISRDNAKNTVYLQMNSLKPEDTAVYYCAKENHYFTQGYGYWGQGTQVTVSS | low polyreactivity |
| QVQLVESGGGLVQAGGSIRLSCAASGVIFYGNSIGWYRQAPGKERELVAAISRRGGRTYYADSVKGRFTNSRDNAKITVYLQMNSLKPEDTAVYYCAADVIYSGDYWGQGTQVTVSS | high polyreactivity |
| QVQLVESGGGLVQAGGSIRLSCAPSGRTFRYYAMGWYRQAPGKERELVAAISRSGGSTYYADSVKGRFTISRDNAKNTVYLQMNSLKPEVTAVYYCADRYYVPWFGPSKYTPYDYWGQGIQVTVSS | high polyreactivity |
| QVQLVESGGGLVQAGGSISLSCAASGFIFDDNAMGCYRQAPGKERELVAAISQGAGRTYYADSVKGRFTISRDNAKNTVYLQMNSVKPEDTAVYYCNSGRPKYWYGSKYDYWGQGTQVTVSS | low polyreactivity |
| QVQLVESGGGLVQAGGSLCLSCAASGIFVYNAIGWYRQAPGKEREFVAAINKSGASTFYADSVKGRFTISRDNAKNTVYLQMNRLKPEDTAVYYCRERDYWGQGTQVTVSS | low polyreactivity |
| QVQLVESGGGLVQAGGSLGLSCAASGFTFRNYAMGCYRQAPGKERELVATLSASSGSTYYADSVKGRFTISRDNAKNTVYLQMNSLKPEDTAVYYCAAGLSGYSRKMYYWGQGTQVTESS | high polyreactivity |
| QVQLVESGGGLVQAGGSLGLSCAASGIILCYYDMGWYRQAPGKERELVAAITYSGSSTYYADSVKGRFTISRDNAKNTVYLLMNSLKPEDTAVYYCNAGWFYGAIWNYDYWGQGTKVTVSS | low polyreactivity |
| QVQLVESGGGLVQAGGSLGLSCAASGLTFSRYAMGWYREAPGKEWELVASISQGGGSTYYADSVKGRFTISRDNPKKTVYLQMNSLKPEDTAVYYCIRLTIGSSSYDYWGQGTKVTVSS | high polyreactivity |
| QVQLVESGGGLVQAGGSLGLSCAASGRTFAKYAMGWYRQAPGKERELVAAITRGDTTNYADSVKGRFTISRDNAKNTGYLQMHRLKPEDTAVYYCAATPDPPHTYEYWGQVTQVTVSS | low polyreactivity |

| Sequence | polyreactivity (PSR sort gate) |
| --- | --- |
| QVQLVESGGGLVQAGGSLGLSCAASGSIFSSNVMGWYRQAPGKERELVAAISGGGGSTYYADSVKGRFTISRDNAKNTGYLQMNSLKPEDTAVYYCNRVTTWARTPKAYGYWGQGTQVTVSS | high polyreactivity |
| QVQLVESGGGLVQAGGSLGLSCAASGSIFTNYAMGWYRQAPGKERELVAAISVGGGRTYYADSVKGRFTISRDNAKNTVDLQMNSLKPEDTAVYYCAARYPFGSLGRYGYWGQGTQVTVSS | high polyreactivity |
| QVQLVESGGGLVQAGGSLGLSCAASGSILYYNAMGWYRQAPGKERELVAAISWSGGSKYDADSVKGRFTISRDNAKNTVYLQMNSQKPEDTAVYYCLYYRSDEMDYWGQGTQVTVSS | high polyreactivity |
| QVQLVESGGGLVQAGGSLGLSCAASGSTFLHDAMGWYRQAPGKERELVAAISVSGVRTYYADSVKGRFTISRDNGKNTVYLQMNSLKPEDTAVYYCAADGHHADYDFWGQGTQVTVSS | low polyreactivity |
| QVQLVESGGGLVQAGGSLGVSCAASGSTFRTYAMGWYRQAPGKERELVAAISQRGGSTYYADSVKGRFTISRDNAKNTVYLQMNSLTPEDSAVYYCAARYGVRYIYRMDYWGQGSQVTVSS | high polyreactivity |
| QVQLVESGGGLVQAGGSLHLSCAASGSIFRKNAMGWYRQAPGKERELVAVITSSGASTYYADSVKGRFTISRDNAKNTVYLQMNSLKPEDTAVYYCNAPSFYTKKMYSWGQGTQVTVSS | high polyreactivity |
| QVQLVESGGGLVQAGGSLLLSCAASASTISYKAMGWYRHAPGQETELVAAIDRSVSTNYADSVKGRFTISRDNAKNTVYLQMNSLKPEDTAVYYCNARHPTDDIVIYDYWGQGTQVTVSS | low polyreactivity |
| QVQLVESGGGLVQAGGSLLLSCAASGFTFQYYAMGWYRPEPGKERELVASISWSGGSTYYADSVKGRFTISRDNAKNTVYLQMHSLKPEDTAVYYCAATVTYFFSSARFSAYGYWGQGTQVTVSS | high polyreactivity |
| QVQLVESGGGLVQAGGSLLLSCAASGFTFSYYAMGWYRPAPGKERELVAAINWNGGSTYYADSVKGRFTISRDNAKNTVYLQMNSLKPEDTAVYYCNARQSYRYSQHGYWGQGTQLTVSS | high polyreactivity |
| QVQLVESGGGLVQAGGSLLLSCAASGIIFSEYDMGWYRQAPGKESELVAAISKSGGRTYYADSVKVRFTISRDNAKNTGFLQMNSLKQEDTAVYYCAAGGRFRFTQYYKHYYWGQGTQVNVSS | high polyreactivity |
| QVQLVESGGGLVQAGGSLLLSCAASGITFIRNGMGWYRPAPGKERELVAAISDTGARTYYADSVKGRFTISRDNAKNTVYLQMNSLKPEDTAVYYCAADFQTYWSHLYGYIGQYDYWGQGTQVTVSS | low polyreactivity |
| QVQLVESGGGLVQAGGSLLLSCAASGRIFRVYAMGWYRQAPGKERELVASITTSGSTYYADSVKGRFTISRDNAKNTVYLQMNSLKPEDTAVYYCAVDNYYTPWYPYLGYDSWGQGTQVTVSS | low polyreactivity |
| QVQLVESGGGLVQAGGSLLLSCAASGRIFRYYAMGWYRQATGKERELVAGISWRGSSTYYADSVKGRFTISRDNATNTVYLQMNSLKPEDTAVYYCNRDQSYIPFTGGRFYYWGQGTQVTVSS | high polyreactivity |
| QVQLVESGGGLVQAGGSLLLSCAASGRTFILNAMGWYSQAPGKERELVAAISWSGGSTYYADSVKGRFTISRDNAKNTVYLQMNSLKPEDTAVYYCAAETYAYLFHTYDYWGQGTQVTVSS | low polyreactivity |
| QVQLVESGGGLVQAGGSLLLSCAASGRTFNVYAMGRYRQAPGKERELVAAINRGGRTNYADSVKGRYTISRDNAKNTVYLQMNSLKPEDTAVYYCAALRVYVNWHKIGYDYWGQGTQVTVSS | low polyreactivity |
| QVQLVESGGGLVQAGGSLLLSCAASGRTFQDNAMGWYRQAPGKERELVAAISWRGGSTNYADSVKGRFTISRDNAKNTVYLQMNSLKPEDTAVYYCTRDPRKYGKLDYWGQGTQVTVSS | low polyreactivity |
| QVQLVESGGGLVQAGGSLLLSCAASGRTFTRYAMGWYRQAPGKERELVASITNGGGTYYADSVKGRFTMSRDNAKNTVYLQMNSLKPEDTAVYYCAKAERVTSHLYYSWGQGTQVTVSS | low polyreactivity |
| QVQLVESGGGLVQAGGSLLLSCAASGSIFGYYAMGWYRQAPGKERELVAAITRRGGSTYYADSVKGRFTISRDNAKNTVYLQMNSLKPEDTAVYYCNKVTRTEYDYWGQGTQVTVSS | high polyreactivity |
| QVQLVESGGGLVQAGGSLLLSCAASGSILVTYAMGWYRQAPGKERQLVAAISRGGRTYYADSVKGRFTISRDSAKNTVYLQMKSLNPEDNAVYYCNTLTRLVYDGMGYWGQGTQVIVSS | high polyreactivity |
| QVQLVESGGGLVQAGGSLLLSCAASGSTFGANAMGWYRQAPGKEREFVAAISRSGVRTYYADSVKGRFTISRDNAKNTVYLQMNSLKPEDTAVYYCAADGYWWTYTRYDYWGQGTQVTVSS | low polyreactivity |
